Laboratory results as given in IntAct's records for PubMed 21763312.

B1: Protein virB8 (Agrobacterium tumefaciens (strain C58 / ATCC 33970)), P17798 (parent)
chain: MKGSEYALLVARETLAEHYKEVEAFQTARAKSARRLSKVIAAVATIAVLGNVAQAFTIATMVPLIRLVPVYLWIRPDGTVDSEVSVSRLPATQEEAVVNASLWEYVRLRESYDADTAQYAYDLVSNFSAPMVRQNYQQFFNYPNPTSPQVILGKHGRLEVEHIASNDVTPGVQQIRYKRTLIVDGKMPMASTWTATVRYEKVTSLPGRLRLTNPGGLVVTSYQTSEDTVSNAGHSEP
partner: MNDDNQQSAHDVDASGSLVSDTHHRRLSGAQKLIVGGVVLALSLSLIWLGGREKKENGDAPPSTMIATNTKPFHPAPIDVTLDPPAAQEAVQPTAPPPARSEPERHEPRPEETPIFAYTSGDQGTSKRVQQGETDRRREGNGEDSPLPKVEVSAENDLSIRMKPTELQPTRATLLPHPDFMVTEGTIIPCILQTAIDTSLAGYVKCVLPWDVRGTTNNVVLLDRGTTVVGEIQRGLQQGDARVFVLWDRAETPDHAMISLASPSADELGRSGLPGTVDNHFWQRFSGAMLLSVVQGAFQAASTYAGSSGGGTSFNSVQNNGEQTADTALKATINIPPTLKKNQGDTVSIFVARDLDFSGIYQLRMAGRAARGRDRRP

Variants of: B1
Settings: with virba_agrfc virB10, P17800

Variant | effect of a mutation on the interaction
A55W | increasing interaction
